Patent US20110152173A1 (EMERGENT PRODUCT DEVELOPMENT SEATTLE, published 2011)
Values belong to the binder of their own block, whether it stands above or below them.

What was measured:
human RANKL = target: T1, human RANKL (human, UniProt O14788 140-317, limits assumed); assay: ELISA: plate-coated ligand, Xceptor detected with HRP anti-human IgG-Fc
T1 sequence (looked up): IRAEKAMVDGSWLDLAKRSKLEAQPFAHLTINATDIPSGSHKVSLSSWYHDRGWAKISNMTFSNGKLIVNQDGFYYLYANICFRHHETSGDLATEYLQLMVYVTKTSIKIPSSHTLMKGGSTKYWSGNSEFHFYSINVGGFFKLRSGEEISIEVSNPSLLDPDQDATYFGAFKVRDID
Protocol: (§1) Mouse and human ligands (R&D Systems, Minnesota, MN) were added to wells of a 96-well plate at a concentration of 1 μg/ml in PBS (100 μl/well). Plates were incubated at 4° C. overnight. After washing five times with PBS-T, 250 μl Blocking Buffer (PBS-T with 3% BSA) was added to each well, and the plate covered and incubated at room temperature (RT) for 2 hours. Serial three fold dilutions of xceptors were made in Working Buffer (PBS-T with 1% BSA) starting at 300 ng/ml. As a negative control, an irrelevant xceptor was used. The plate was incubated at RT for 1 hour. After washing five times with PBS-T, 100 μl per well of HRP-conjugated anti-human IgG-Fc (1:5000 in Working buffer) was added, the plate covered, and incubated at RT for 1 hour. After washing five times with PBS-T, 100 µl of Quant-Blu substrate (Pierce, Rockford, Ill.) was added to each well. The plate was incubated at RT for 10-30 minutes, and fluorescence measured at 325/420 nm.

mouse RANKL = target: T2, mouse RANKL (mouse, UniProt O35235 158-316, limits assumed); assay: as above
T2 construct: also called mRANKL
T2 sequence (looked up): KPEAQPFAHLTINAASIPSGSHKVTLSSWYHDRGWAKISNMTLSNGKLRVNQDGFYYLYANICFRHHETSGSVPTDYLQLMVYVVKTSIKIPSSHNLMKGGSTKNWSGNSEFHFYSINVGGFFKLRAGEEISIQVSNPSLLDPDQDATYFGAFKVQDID
Protocol: as §1

TRU(XT6)-1042 = target: T3, TRU(XT6)-1042; assay: ELISA: Xceptor captured on anti-human IgG-Fc, sIL-6R added, detected with anti-IL-6R-biotin
T3 construct: not trimmed; also called Xceptor TNFRSF1B::anti-HIL6
Protocol: Added to each well of a 96-well plate was 100 μl goat anti-human IgG-Fc (ICN Pharmaceuticals, Costa Mesa, Calif.) from a 2 μg/ml solution in PBS, pH 7.2-7.4. The plates were covered, and incubated overnight at 4° C. After washing four times with PBS-T, 250 μl Blocking buffer (PBS-T with 3% BSA or 10% normal goat serum) was added to each well, the plate was covered, and incubated at room temperature for 2 hours (or at 4° C. overnight). […] After washing the plate five times with PBS-T, added in duplicate wells was 100 μl/well recombinant human sIL-6R(R&D Systems) from a […] solution in Working buffer, the plate was covered, and incubated at room temperature for about 1 to 2 hours. After washing the plate five times with PBS-T, added 100 μl/well anti-human IL-6R-biotin (R&D Systems) from a 100 ng/ml solution in Working buffer, the plate was covered, and incubated at room temperature for about 1 to 2 hours. After washing the plate five times with PBS-T, 100 μl per well horse radish peroxidase-conjugated streptavidin (Zymed, San Francisco, Calif.) diluted 1:4,000 in Working buffer was added, the plate was covered, and incubated at room temperature for 30 minutes. After washing the plate six times with PBS-T, 100 μl per well 3,3,5,5-tetramentylbenzidine (TMB) substrate solution (Pierce, Rockford, Ill.) was added for about 3 to 5 minutes and then the reaction was stopped with 50 μl Stop buffer (1N H₂SO₄) per well. The absorbance of each well was read at 450 nm.

human IL7 = target: T4, human IL7 (human, UniProt P13232 26-177); assay: ELISA: plate-coated ligand, Xceptor detected with HRP anti-human IgG-Fc
T4 sequence (looked up): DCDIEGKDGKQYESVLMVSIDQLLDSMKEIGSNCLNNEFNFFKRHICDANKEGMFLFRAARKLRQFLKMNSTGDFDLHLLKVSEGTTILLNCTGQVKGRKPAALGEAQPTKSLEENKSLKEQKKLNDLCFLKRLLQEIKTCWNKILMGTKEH
Protocol: as §1

- binding result (human RANKL): binds
- binding result (mouse RANKL): binds
B1: Xceptor comprising a TNFRSF1B ectodomain and an OPG ectodomain (Fc fusion)
chain: LPAQVAFTPYAPEPGSTCRLREYYDQTAQMCCSKCSPGQHAKVFCTKTSDTVCDSCEDSTYTQLWNWVPECLSCGSRCSSDQVETQACTREQNRICTCRPGWYCALSKQEGCRLCAPLRKCRPGFGVARPGTETSDVVCKPCAPGTFSNTTSSTDICRPHQICNVVAIPGNASMDAVCTSTSPTRSMAPGAVHLPQPVSTRSQHTQPTPEPSTAPSTSFLLPMGPSPPAEGSTGDTGEPKSSDKTHTCPPCPAPEAAGAPSVFLFPPKPKDTLMISRTPEVTCVVVDVSHEDPEVKFNWYVDGVEVHNAKTKPREEQYNSTYRVVSVLTVLHQDWLNGKAYACAVSNKALPAPIEKTISKAKGQPREPQVYTLPPSRDELTKNQVSLTCLVKGFYPSDIAVEWESNGQPENNYKTTPPVLDSDGSFFLYSKLTVDKSRWQQGNVFSCSVMHEALHNHYTQKSLSLSPGQRHNNSSLNTGTQMAGHSPNSETFPPKYLHYDEETSHQLLCDKCPPGTYLKQHCTAKWKTVCAPCPDHYYTDSWHTSDECLYCSPVCKELQYVKQECNRTHNRVCECKEGRYLEIEFCLKHRSCPPGFGVVQAGTPERNTVCKRCPDGFFSNETSSKAPCRKHTNCSVFGLLLTQKGNATHDNICSGNSESTQKCGIDVTLCEEAFFRFAVPTKFTPNWLSVLVDNLPGTKVNAESVERIKRQHSSQEQTFQLLKLWKHQNKDQDIVKKIIQDIDLCENSVQRHIGHANLTFEQLRSLMESLPGKKVGAEDIEKTIKACKPSDQILKLLSLWRIKNGDQDTLKGLMHALKHSKTYHFPKTVTQSLKKTIRFLHSFTMYKLYQKLFLEMIGNQVQSVKISCL
notes: also called TNFR × OPG

- binding result (TRU(XT6)-1042): no binding
B2: recombinant human sIL-6R (receptor)
chain: LAPRRCPAQEVARGVLTSLPGDSVTLTCPGVEPEDNATVHWVLRKPAAGSHPSRWAGMGRRLLLRSVQLHDSGNYSCYRAGRPAGTVHLLVDVPPEEPQLSCFRKSPLSNVVCEWGPRSTPSLTTKAVLLVRKFQNSPAEDFQEPCQYSQESQKFSCQLAVPEGDSSFYIVSMCVASSVGSKFSKTQTFQGCGILQPDPPANITVTAVARNPRWLSVTWQDPHSWNSSFYRLRFELRYRAERSKTFTTWMVKDLQHHCVIHDAWSGLRHVVQLRAQEEFGQGEWSEWSPEAMGTPWTESRSPPAENEVSTPMQALTTNKDDDNILFRDSANATSLPVQD
notes: Bought; also called human soluble IL6R

- binding result (human IL7): binds
B3: Xceptor comprising a TNFRSF1B ectodomain and an IL7R ectodomain (Fc fusion)
chain: LPAQVAFTPYAPEPGSTCRLREYYDQTAQMCCSKCSPGQHAKVFCTKTSDTVCDSCEDSTYTQLWNWVPECLSCGSRCSSDQVETQACTREQNRICTCRPGWYCALSKQEGCRLCAPLRKCRPGFGVARPGTETSDVVCKPCAPGTFSNTTSSTDICRPHQICNVVAIPGNASMDAVCTSTSPTRSMAPGAVHLPQPVSTRSQHTQPTPEPSTAPSTSFLLPMGPSPPAEGSTGDTGEPKSSDKTHTCPPCPAPEAAGAPSVFLFPPKPKDTLMISRTPEVTCVVVDVSHEDPEVKFNWYVDGVEVHNAKTKPREEQYNSTYRVVSVLTVLHQDWLNGKAYACAVSNKALPAPIEKTISKAKGQPREPQVYTLPPSRDELTKNQVSLTCLVKGFYPSDIAVEWESNGQPENNYKTTPPVLDSDGSFFLYSKLTVDKSRWQQGNVFSCSVMHEALHNHYTQKSLSLSPGQRHNNSSLNTGTQMAGHSPNSESGYAQNGDLEDAELDDYSFSCYSQLEVNGSQHSLTCAFEDPDVNITNLEFEICGALVEVKCLNFRKLQEIYFIETKKFLLIGKSNICVKVGEKSLTCKKIDLTTIVKPEAPFDLSVVYREGANDFVVTFNTSHLQKKYVKVLMHDVAYRQEKDENKWTHVNLSSTKLTLLQRKLQPAAMYEIKVRSIPDHYFKGFWSEWSPSYYFRTPEINNSSGEMDP
notes: also called TNFR × IL7R
